Experimental data reported in PMC6628129 (Biology, 2019).

Biological target: T1, Prostacyclin synthase (PTGIS), truncated, His-tagged, with Avi-tag, biotinylated (UniProt Q16647 1-500, biotin (in vivo biotinylation of the Avi-tag))
T1 construct: Prostacyclin synthase (PTGIS; EC 5.3.99.4), truncated (by the membrane domain); Held on the streptavidin (SA) chip; also called biotinylated PTGIS; PTGIS immobilized on the optical chip; source: E. coli BL21(DE3), purified (Ni-NTA, SEC)
T1 sequence (looked up): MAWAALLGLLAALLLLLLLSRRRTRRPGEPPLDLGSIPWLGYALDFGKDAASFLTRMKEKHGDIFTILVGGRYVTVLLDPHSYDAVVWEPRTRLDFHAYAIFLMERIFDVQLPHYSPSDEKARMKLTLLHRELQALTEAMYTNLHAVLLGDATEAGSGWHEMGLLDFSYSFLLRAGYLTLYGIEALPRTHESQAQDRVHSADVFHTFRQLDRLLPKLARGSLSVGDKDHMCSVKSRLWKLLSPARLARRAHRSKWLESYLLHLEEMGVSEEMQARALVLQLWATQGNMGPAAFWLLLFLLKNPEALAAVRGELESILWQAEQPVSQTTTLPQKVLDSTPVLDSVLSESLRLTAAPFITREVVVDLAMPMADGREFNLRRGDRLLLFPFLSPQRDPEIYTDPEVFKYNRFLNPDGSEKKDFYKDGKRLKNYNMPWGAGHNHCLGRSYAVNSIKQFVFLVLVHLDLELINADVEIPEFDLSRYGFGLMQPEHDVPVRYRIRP
Test: SPR; biotinylated PTGIS on a streptavidin (SA) chip, purified protein injected as analyte; 25 °C, Biacore T-200
Details: both partners purified

B1: Cytochrome P450 2J2 (CYP2J2), truncated and His-tagged (enzyme)
chain: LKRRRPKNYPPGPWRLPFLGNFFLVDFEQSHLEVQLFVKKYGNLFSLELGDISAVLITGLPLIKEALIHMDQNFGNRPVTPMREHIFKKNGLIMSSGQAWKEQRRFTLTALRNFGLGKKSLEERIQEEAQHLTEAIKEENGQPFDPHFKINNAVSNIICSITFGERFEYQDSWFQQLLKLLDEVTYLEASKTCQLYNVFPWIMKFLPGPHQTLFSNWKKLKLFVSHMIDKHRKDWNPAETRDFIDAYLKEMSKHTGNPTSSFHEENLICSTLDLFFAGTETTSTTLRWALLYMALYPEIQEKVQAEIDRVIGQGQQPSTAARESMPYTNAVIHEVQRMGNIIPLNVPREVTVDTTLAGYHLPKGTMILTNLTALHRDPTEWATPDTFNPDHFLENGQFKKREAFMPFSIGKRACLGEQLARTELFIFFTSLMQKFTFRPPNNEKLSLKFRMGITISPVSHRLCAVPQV
Kd: 200 nM
